These results are taken from article PMC8056383.

The assay concerns the target 23C-176C double-cysteine mutant of full-length ClpB, labelled with Alexa Fluor 488 and Alexa Fluor 594 (Thermus thermophilus) (UniProt Q9RA63).

Chain of 23C-176C double-cysteine mutant of full-length ClpB, labelled with Alexa Fluor 488 and Alexa Fluor 594 (Thermus thermophilus) (Q9RA63 whole entry R23C/D176C): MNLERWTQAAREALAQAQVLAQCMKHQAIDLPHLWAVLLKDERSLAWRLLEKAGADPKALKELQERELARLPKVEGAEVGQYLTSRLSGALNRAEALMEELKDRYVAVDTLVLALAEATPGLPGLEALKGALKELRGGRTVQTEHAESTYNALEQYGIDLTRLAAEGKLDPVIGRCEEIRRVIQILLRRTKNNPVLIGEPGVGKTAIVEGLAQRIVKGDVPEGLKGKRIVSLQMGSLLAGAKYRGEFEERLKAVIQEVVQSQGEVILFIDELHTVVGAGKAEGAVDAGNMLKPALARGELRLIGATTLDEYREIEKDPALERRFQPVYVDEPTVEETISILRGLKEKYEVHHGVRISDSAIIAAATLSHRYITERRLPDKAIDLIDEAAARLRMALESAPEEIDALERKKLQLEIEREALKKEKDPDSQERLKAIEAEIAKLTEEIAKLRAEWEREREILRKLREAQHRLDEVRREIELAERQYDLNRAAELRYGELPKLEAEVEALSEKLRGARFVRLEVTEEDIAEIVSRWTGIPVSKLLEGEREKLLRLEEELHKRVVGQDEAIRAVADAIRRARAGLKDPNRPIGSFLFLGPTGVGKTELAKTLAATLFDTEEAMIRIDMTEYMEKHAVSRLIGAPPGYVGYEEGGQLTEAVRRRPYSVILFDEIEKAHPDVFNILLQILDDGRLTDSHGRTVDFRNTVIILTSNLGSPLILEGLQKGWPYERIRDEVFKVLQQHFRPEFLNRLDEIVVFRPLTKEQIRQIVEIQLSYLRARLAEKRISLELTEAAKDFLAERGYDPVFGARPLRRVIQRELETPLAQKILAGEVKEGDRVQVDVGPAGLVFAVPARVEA

As for “κ-casein (from UniProt P02668 22-190) (natural protein)”, the ATPase activity of fully labeled 23C-176C ClpB with 25 μM κ-casein relative to basal was 3.1 fold.
